Measurements published in PMC9482650, “Quantitative fragmentomics allow affinity mapping of interactomes” (Nature Communications, 2022).

T1: APBA2_1, Q99767
T1 sequence (Q99767 563-664, limits assumed, looked up): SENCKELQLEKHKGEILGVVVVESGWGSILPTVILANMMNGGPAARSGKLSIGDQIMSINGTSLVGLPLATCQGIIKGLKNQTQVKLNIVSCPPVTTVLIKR

T2: NHERF3_4, Q5T2W1
T2 sequence (Q5T2W1 373-468, limits assumed, looked up): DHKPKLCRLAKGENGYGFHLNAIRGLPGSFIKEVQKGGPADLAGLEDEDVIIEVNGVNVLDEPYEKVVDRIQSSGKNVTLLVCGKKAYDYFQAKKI

T3: HTRA4, P83105
T3 sequence (P83105 378-476, limits assumed, looked up): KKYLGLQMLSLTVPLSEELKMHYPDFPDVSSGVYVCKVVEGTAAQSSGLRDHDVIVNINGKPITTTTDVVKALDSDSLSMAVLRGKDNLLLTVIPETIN

T4: SYNJ2BP, P57105
T4 sequence (P57105 8-110, limits assumed, looked up): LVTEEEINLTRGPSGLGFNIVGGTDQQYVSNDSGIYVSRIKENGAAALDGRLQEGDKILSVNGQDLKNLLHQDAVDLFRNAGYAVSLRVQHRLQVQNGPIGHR

T5: DVL3, Q92997
T5 sequence (Q92997 244-331, limits assumed, looked up): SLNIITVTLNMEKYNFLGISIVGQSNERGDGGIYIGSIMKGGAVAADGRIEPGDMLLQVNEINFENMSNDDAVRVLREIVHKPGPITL

T6: DFNB31_3, Q9P202
T6 sequence (Q9P202 811-907, limits assumed, looked up): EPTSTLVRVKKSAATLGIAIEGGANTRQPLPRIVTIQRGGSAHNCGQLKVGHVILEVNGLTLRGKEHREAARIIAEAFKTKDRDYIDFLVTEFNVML

T7: PDZD7_3, Q9H5P4
T7 sequence (Q9H5P4 857-944, limits assumed, looked up): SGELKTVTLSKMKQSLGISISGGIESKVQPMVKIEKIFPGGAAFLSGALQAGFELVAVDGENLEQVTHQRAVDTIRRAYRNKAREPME

T8: SIPA1L2, Q9P2F8
T8 sequence (Q9P2F8 945-1036, limits assumed, looked up): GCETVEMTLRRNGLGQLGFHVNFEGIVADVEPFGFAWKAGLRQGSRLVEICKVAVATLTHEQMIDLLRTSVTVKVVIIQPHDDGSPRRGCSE

T9: APBA1_1, Q02410
T9 sequence (Q02410 651-752, limits assumed, looked up): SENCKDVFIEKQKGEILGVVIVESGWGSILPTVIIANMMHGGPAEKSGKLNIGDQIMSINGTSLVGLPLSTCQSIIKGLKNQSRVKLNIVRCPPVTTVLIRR

T10: MPDZ_10, O75970
T10 sequence (O75970 1624-1722, limits assumed, looked up): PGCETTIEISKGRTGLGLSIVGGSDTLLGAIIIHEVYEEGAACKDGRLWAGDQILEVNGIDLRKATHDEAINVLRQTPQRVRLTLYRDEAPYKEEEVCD

T11: APBA2_2, Q99767
T11 sequence (Q99767 654-744, limits assumed, looked up): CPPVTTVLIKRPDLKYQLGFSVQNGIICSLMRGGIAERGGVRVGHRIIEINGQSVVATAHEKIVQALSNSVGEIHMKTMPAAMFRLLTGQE

T12: APBA3_1, O96018
T12 sequence (O96018 389-490, limits assumed, looked up): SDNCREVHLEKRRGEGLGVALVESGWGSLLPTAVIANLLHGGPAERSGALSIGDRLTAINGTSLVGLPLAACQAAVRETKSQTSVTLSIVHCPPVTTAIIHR

T13: LIN7B, Q9HAP6
T13 sequence (Q9HAP6 88-185, limits assumed, looked up): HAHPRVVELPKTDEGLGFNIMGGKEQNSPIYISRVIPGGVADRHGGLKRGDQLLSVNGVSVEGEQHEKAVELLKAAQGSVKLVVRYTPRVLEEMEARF


How the values were obtained:
Assay in all cases: holdup assay
Parameters in all cases: key: below the threshold = too weak to quantify, mostly under pKd 3.1 to 4
Conditions in all cases: plain residues with an end cap or a label only (N-terminal biotin on a linker: ado-ado)
[1] = target: GRIP2_3, Q9C0E4
Sequence of GRIP2_3, Q9C0E4 (Q9C0E4 238-339): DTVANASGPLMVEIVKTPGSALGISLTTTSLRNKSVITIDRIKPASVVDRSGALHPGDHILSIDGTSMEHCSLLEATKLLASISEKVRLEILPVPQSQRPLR

[2] = target: T1, APBA2_1, Q99767
[3] = target: T2, NHERF3_4, Q5T2W1
[4] = target: Inadl_2, Q8NI35
Sequence of Inadl_2, Q8NI35 (Q8NI35 238-335): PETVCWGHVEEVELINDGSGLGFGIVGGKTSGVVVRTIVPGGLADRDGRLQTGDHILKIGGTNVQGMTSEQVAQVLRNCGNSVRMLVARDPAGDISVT

[5] = target: FRMPD4, Q14CM0
Sequence of FRMPD4, Q14CM0 (Q14CM0 67-160): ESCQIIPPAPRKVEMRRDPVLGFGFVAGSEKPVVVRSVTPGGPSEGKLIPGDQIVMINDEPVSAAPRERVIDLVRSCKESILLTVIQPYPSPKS

[6] = target: MAST2, Q6P0Q8
Sequence of MAST2, Q6P0Q8 (Q6P0Q8 1099-1202): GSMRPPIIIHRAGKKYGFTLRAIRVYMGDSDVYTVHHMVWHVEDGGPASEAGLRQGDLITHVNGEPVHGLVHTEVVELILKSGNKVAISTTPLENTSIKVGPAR

[7] = target: T3, HTRA4, P83105
[8] = target: T4, SYNJ2BP, P57105
[9] = target: GRASP, Q7Z6J2
Sequence of GRASP, Q7Z6J2 (Q7Z6J2 96-193): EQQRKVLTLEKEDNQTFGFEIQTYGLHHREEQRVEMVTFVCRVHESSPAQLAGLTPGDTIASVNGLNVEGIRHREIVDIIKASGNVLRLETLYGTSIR

[10] = target: T5, DVL3, Q92997
[11] = target: T6, DFNB31_3, Q9P202
[12] = target: MAGI3_2, Q5TCQ9
Sequence of MAGI3_2, Q5TCQ9 (Q5TCQ9 398-503): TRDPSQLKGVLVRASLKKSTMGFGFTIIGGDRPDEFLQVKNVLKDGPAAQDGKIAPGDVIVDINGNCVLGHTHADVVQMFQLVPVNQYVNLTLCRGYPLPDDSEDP

[13] = target: T7, PDZD7_3, Q9H5P4
[14] = target: TJP2_1, Q9UDY2
Sequence of TJP2_1, Q9UDY2 (Q9UDY2 24-128): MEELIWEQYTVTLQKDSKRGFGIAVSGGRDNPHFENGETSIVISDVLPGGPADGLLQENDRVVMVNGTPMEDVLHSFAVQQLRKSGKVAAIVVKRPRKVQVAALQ

[15] = target: SNX27, Q96L92
[16] = target: PDLIM1, O00151
Sequence of PDLIM1, O00151 (O00151 1-87): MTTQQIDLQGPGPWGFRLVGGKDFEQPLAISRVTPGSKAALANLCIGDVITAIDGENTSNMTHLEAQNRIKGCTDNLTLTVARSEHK

[17] = target: T8, SIPA1L2, Q9P2F8
[18] = target: T9, APBA1_1, Q02410
[19] = target: T10, MPDZ_10, O75970
[20] = target: GRIP2_7, Q9C0E4
Sequence of GRIP2_7, Q9C0E4 (Q9C0E4 934-1023): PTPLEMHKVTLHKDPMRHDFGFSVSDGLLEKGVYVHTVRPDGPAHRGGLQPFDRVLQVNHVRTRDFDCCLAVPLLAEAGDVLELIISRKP

[21] = target: T11, APBA2_2, Q99767
[22] = target: MAGI2_4, Q86UL8
Sequence of MAGI2_4, Q86UL8 (Q86UL8 772-865): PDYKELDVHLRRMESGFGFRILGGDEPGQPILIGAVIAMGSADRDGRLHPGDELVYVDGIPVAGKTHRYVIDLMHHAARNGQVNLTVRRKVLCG

[23] = target: T12, APBA3_1, O96018
[24] = target: T13, LIN7B, Q9HAP6

pKd [1] | pKd [2] | pKd [3] | pKd [4] | pKd [5] | pKd [6] | pKd [7] | pKd [8] | pKd [9] | pKd [10] | pKd [11] | pKd [12] | pKd [13] | pKd [14] | pKd [15] | pKd [16] | pKd [17] | pKd [18] | pKd [19] | pKd [20] | Binder | further results
below the threshold | below the threshold | below the threshold | below the threshold | below the threshold | 5.52 | below the threshold | 3.87 | 3.93 | below the threshold | 3.64 | below the threshold | below the threshold | below the threshold | 4.76 | 4.75 | below the threshold | below the threshold | below the threshold | below the threshold | SSALYGESDL [ACTN2, P35609] | pKd [21]: 3.47; pKd [22]: below the threshold; pKd [23]: below the threshold; pKd [24]: 3.76
below the threshold | below the threshold | below the threshold | below the threshold | below the threshold | 5.76 | below the threshold | 4.09 | 4.31 | below the threshold | 3.48 | 4.25 | below the threshold | below the threshold | below the threshold | below the threshold | below the threshold | below the threshold | below the threshold | below the threshold | PRISRSQSEL [CCDC134, Q9H6E4] | pKd [21]: below the threshold; pKd [22]: below the threshold; pKd [23]: below the threshold; pKd [24]: 3.62
3.52 | below the threshold | below the threshold | below the threshold | below the threshold | 5.19 | 3.97 | 3.84 | 4.18 | below the threshold | below the threshold | 5.12 | 4.26 | 3.97 | 5.41 | below the threshold | below the threshold | below the threshold | 3.62 | below the threshold | LPHPHSTTRV [NLGN2, Q8NFZ4] | pKd [21]: below the threshold; pKd [22]: 3.72; pKd [23]: below the threshold; pKd [24]: 3.58
